This note sets out measurements from PMC10487539, “Glutaryl-CoA Dehydrogenase Misfolding in Glutaric Acidemia Type 1” (International Journal of Molecular Sciences, 2023).

Data set [1] deals with the molecule itself. As to the kind of experiment: SEC; self-association; MBPTrap eluate on HiLoad 16/600 Superdex 200, 20 mM HEPES pH 7.0, 200 mM NaCl, 4 °C; higher oligomers or aggregates 45-55 mL, tetramers 65-75 mL, dimers 75-85 mL, monomers 85-95 mL.
Data set [2] deals with the molecule itself. As to the kind of experiment: native gel or EMSA; self-association; BN-PAGE and Western blot of proteins purified by affinity chromatography; bands of monomer, dimer and tetramer as percent of total.
Data set [3] concerns the molecule itself. Briefly: SEC; self-association; as a1 but in 10 mM potassium phosphate buffer with 10% glycerol (used for A433V only), 4 °C.

Residue numbers refer to the chain shown, from its start. Names may count otherwise.

B1: recombinant human glutaryl-CoA dehydrogenase, wild type, MBP fusion (enzyme)
chain: RPEFDWQDPLVLEEQLTTDEILIRDTFRTYCQERLMPRILLANRNEVFHREIISEMGELGVLGPTIKGYGCAGVSSVAYGLLARELERVDSGYRSAMSVQSSLVMHPIYAYGSEEQRQKYLPQLAKGELLGCFGLTEPNSGSDPSSMETRAHYNSSNKSYTLNGTKTWITNSPMADLFVVWARCEDGCIRGFLLEKGMRGLSAPRIQGKFSLRASATGMIIMDGVEVPEENVLPGASSLGGPFGCLNNARYGIAWGVLGASEFCLHTARQYALDRMQFGVPLARNQLIQKKLADMLTEITLGLHACLQLGRLKDQDKAAPEMVSLLKRNNCGKALDIARQARDMLGGNGISDEYHVIRHAMNLEAVNTYEGTHDIHALILGRAITGIQAFTASK
notes: glutaryl-CoA dehydrogenase (GCDH), human cDNA in pMAL-c2X; the precursor has 438 amino acids and the first 44 are cut on mitochondrial import; No cleavage of MBP is described; The printed masses (tetramer 173.2 kDa) count without MBP; also called GCDH; WT; not shown: MBP, N-terminal, kept
With B1, the “stoichiometry N” value in data set [1] was determined as 4.

B2: recombinant human GCDH variant R138G, MBP fusion (enzyme)
chain: B1 chain with R94G
notes: glutaryl-CoA dehydrogenase (GCDH), human cDNA in pMAL-c2X, patient variant; No cleavage of MBP is described; also called c.412A > G; not shown: MBP, N-terminal, kept
For B2, the binding result in data set [2] is listed as “binds”.

B3: recombinant human GCDH variant A433E, MBP fusion (enzyme)
chain: B1 chain with A389E
notes: glutaryl-CoA dehydrogenase (GCDH), human cDNA in pMAL-c2X, patient variant; No cleavage of MBP is described; also called c.1298C > A; not shown: MBP, N-terminal, kept
With B3, in data set [1], the binding result is listed as “binds”.

B4: recombinant human GCDH variant E414K, MBP fusion (enzyme)
chain: B1 chain with E370K
notes: glutaryl-CoA dehydrogenase (GCDH), human cDNA in pMAL-c2X, patient variant; No cleavage of MBP is described; also called c.1240G > A; not shown: MBP, N-terminal, kept
Consider B4, for which the binding result in data set [1] is listed as “binds”.

B5: recombinant human GCDH variant A421V, MBP fusion (enzyme)
chain: B1 chain with A377V
notes: glutaryl-CoA dehydrogenase (GCDH), human cDNA in pMAL-c2X, patient variant; No cleavage of MBP is described; also called c.1262C > T; not shown: MBP, N-terminal, kept
Regarding B5, the binding result in data set [1] was “binds”.

B6: recombinant human GCDH variant R227P, MBP fusion (enzyme)
chain: B1 chain with R183P
notes: glutaryl-CoA dehydrogenase (GCDH), human cDNA in pMAL-c2X, patient variant; No cleavage of MBP is described; also called c.680G > C; source: could not be purified by size-exclusion chromatography; not shown: MBP, N-terminal, kept
As to B6, the binding result in data set [2] is given as “binds”.

B7: recombinant human GCDH variant A433V, MBP fusion (enzyme)
chain: B1 chain with A389V
notes: glutaryl-CoA dehydrogenase (GCDH), human cDNA in pMAL-c2X, patient variant; No cleavage of MBP is described; also called c.1298C > T; not shown: MBP, N-terminal, kept
With B7, the binding result in data set [3] is listed as “binds”.

B8: recombinant human GCDH variant V400M, MBP fusion (enzyme)
chain: B1 chain with V356M
notes: glutaryl-CoA dehydrogenase (GCDH), human cDNA in pMAL-c2X, patient variant; No cleavage of MBP is described; also called c.1198G > A; not shown: MBP, N-terminal, kept
Turning to B8, the binding result in data set [2] is listed as “binds”.

B9: recombinant human GCDH variant R88C, MBP fusion (enzyme)
chain: B1 chain with R44C
notes: glutaryl-CoA dehydrogenase (GCDH), human cDNA in pMAL-c2X, patient variant; No cleavage of MBP is described; also called c.262C > T; not shown: MBP, N-terminal, kept
In the case of B9, in data set [1], the binding result is “binds”.

B10: recombinant human GCDH variant M263V, MBP fusion (enzyme)
chain: B1 chain with M219V
notes: glutaryl-CoA dehydrogenase (GCDH), human cDNA in pMAL-c2X, patient variant; No cleavage of MBP is described; also called c.787A > G; not shown: MBP, N-terminal, kept
For the protein B10, in data set [2], the binding result is recorded as “binds”.

The term stoichiometry N denotes the number of molecules, sites or subunits per partner or assembly.
